# Measurements: paper PMC12333503
# Biological target: FLAG-tagged TDP-marginal peptide 20 (TDP-MP20), shortened splicing isoform of TDP-43 (human (cDNA cloned from HEK293T cells))
# Experiment: co-IP; HEK293T cells co-overexpressing a FLAG-tagged TDP-43 isoform and FL-Venus; IP with anti-DDDDK (FLAG) antibody, 3 h at 4°C, Protein G Mag Sepharose beads, three low-salt washes and one high-salt wash; Venus signal normalised to FLAG signal in the IP (n = 3)
# Chain of FLAG-tagged TDP-marginal peptide 20 (TDP-MP20), shortened splicing isoform of TDP-43 (human (cDNA cloned from HEK293T cells)) (Q13148 whole entry, canonical isoform): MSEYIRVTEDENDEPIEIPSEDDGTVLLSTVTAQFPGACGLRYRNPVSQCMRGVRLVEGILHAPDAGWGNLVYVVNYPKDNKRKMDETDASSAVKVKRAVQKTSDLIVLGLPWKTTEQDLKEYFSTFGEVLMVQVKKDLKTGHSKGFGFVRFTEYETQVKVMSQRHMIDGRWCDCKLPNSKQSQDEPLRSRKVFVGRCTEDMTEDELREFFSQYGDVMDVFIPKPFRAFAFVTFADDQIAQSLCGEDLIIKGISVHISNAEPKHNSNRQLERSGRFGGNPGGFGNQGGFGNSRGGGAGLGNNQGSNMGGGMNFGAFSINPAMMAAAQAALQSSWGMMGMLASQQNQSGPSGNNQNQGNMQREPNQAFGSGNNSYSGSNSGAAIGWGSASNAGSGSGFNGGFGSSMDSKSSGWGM
substance,measurement,value
TDP-FL fused to Venus (from UniProt Q13148 1-414) (natural protein),fold of co-precipitated FL-Venus (ratio of FL-Venus to FLAG in the IP) relative to FLAG-FL,5.7 fold
same,fold of co-precipitated FL-Venus (ratio of FL-Venus to FLAG in the IP) relative to FLAG-MP18,2.3 fold
